Assay [1] addresses T1, human CLDN3 N38A mutant on RKO KO cells (human, UniProt O15551 1-220).
T1 construct: Single-point alanine mutant, monoclonal RKO KO line with GFP
T1 chain: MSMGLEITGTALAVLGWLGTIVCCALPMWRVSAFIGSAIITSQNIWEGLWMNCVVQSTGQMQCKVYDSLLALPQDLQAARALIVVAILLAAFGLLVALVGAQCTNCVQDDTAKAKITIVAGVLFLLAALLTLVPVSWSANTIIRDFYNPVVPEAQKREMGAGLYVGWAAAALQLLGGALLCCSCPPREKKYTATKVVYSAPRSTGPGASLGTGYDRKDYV
The assay is described as follows: flow cytometry, % 906-mAb-PE positive of live cells. Here is the method: (§1) Flow cytometry. RKO KO target cells were seeded for flow cytometry as described in previous sections. Wells were topped up with flow buffer (PBS+2% FBS+2 mM EDTA+0.05% sodium azide) and plates were centrifuged at 300×g for 5 minutes. Supernatant was flicked off, cells were resuspended in 150 uL flow buffer. Plate was centrifuged at 300×g for 5 minutes. Supernatant was flicked off and cells were resuspended in 50 uL IgG block at 1:100 for 10 minutes at RT. Following incubation, plate was washed twice as above. Cells were resuspended in 50 uL of diluted antibodies (all a 1 in 300 dilution) in flow buffer, or flow buffer alone (unstained control). Cells were incubated for 30 minutes at RT. After incubation, plates were washed twice with 150 uL flow buffer. […]
(§2) Data Analysis: Flow Cytometry. Flow cytometry data was analysed using FLOWJO and further analysed in Microsoft excel and RStudio. […] Statistics for % PE-positive cells (as % of live cells) and Median Fluorescence Intensity (MFI) were calculated in FLOWJO and exported to Microsoft Excel for further analysis. […] Briefly, MFI was log 10 transformed and a mixed model was used with a fixed effect for cell line and a random effect for Plate, whilst % Parent was analysed on a linear scale in a mixed model with a fixed effect for cell line and a random effect for plate.

Assay [2] addresses T2, human CLDN3 E153A mutant on RKO KO cells (human, UniProt O15551 1-220).
T2 construct: Single-point alanine mutant, monoclonal RKO KO line with GFP
T2 chain: T1 chain with A38N, E153A
Described as above. Here is the method:
as §1, §2

For assay [3], the target named is human CLDN3 S42A mutant on RKO KO cells (human) (UniProt O15551). The assay is described as follows: flow cytometry, 906-mAb-PE on RKO KO cells expressing the mutant.
human CLDN3 S42A mutant on RKO KO cells (human), sequence (O15551 whole entry S42A): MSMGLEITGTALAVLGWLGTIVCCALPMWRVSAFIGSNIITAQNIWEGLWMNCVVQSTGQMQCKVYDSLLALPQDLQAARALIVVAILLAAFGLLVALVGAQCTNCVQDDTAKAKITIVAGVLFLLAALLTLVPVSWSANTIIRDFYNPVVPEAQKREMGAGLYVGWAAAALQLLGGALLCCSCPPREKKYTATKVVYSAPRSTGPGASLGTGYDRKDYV
For assay [4], the target named is human CLDN3 Q43A mutant on RKO KO cells (human) (UniProt O15551). Described as above.
human CLDN3 Q43A mutant on RKO KO cells (human), sequence (O15551 whole entry Q43A): as the sequence (O15551 whole entry S42A) above, with A42S, Q43A counted along it
Assay [5] has as its target human CLDN3 P152A mutant on RKO KO cells (human) (UniProt O15551). The assay is described as above.
Assay [6] concerns the target human CLDN3 Q155A mutant on RKO KO cells (human) (UniProt O15551). The assay is described as above.
Assay [7] concerns the target human CLDN3 V150A mutant on RKO KO cells (human) (UniProt O15551). The assay is described as above.
For assay [8], the target named is human CLDN3 N148A mutant on RKO KO cells (human) (UniProt O15551). The description is as above.
human CLDN3 N148A mutant on RKO KO cells (human), sequence (O15551 whole entry N148A): as the sequence (O15551 whole entry S42A) above, with A42S, N148A counted along it
Assay [9] addresses human CLDN3 F34A mutant on RKO KO cells (human) (UniProt O15551). The assay is described as above.
Assay [10] addresses human CLDN3 P149A mutant on RKO KO cells (human) (UniProt O15551). The assay is described as above.
In assay [11] the target is human CLDN3 S42A mutant on RKO KO cells (human) (UniProt O15551). Nature of the assay: flow cytometry, % 906-mAb-PE positive of live cells.
For assay [12], the target named is human CLDN3 R157A mutant on RKO KO cells (human) (UniProt O15551). The description is as above.
human CLDN3 R157A mutant on RKO KO cells (human), sequence (O15551 whole entry R157A): as the sequence (O15551 whole entry S42A) above, with A42S, R157A counted along it
Assay [13] addresses human CLDN3 Q43A mutant on RKO KO cells (human) (UniProt O15551). The assay is described as above.
Assay [14] deals with human CLDN3 P152A mutant on RKO KO cells (human) (UniProt O15551). Described as above.
human CLDN3 P152A mutant on RKO KO cells (human), sequence (O15551 whole entry P152A): as the sequence (O15551 whole entry S42A) above, with A42S, P152A counted along it
Assay [15] deals with human CLDN3 Q155A mutant on RKO KO cells (human) (UniProt O15551). The assay is described as above.
human CLDN3 Q155A mutant on RKO KO cells (human), sequence (O15551 whole entry Q155A): as the sequence (O15551 whole entry S42A) above, with A42S, Q155A counted along it
The target in assay [16] is human CLDN3 I45A mutant on RKO KO cells (human) (UniProt O15551). The assay is described as above.
human CLDN3 I45A mutant on RKO KO cells (human), sequence (O15551 whole entry I45A): as the sequence (O15551 whole entry S42A) above, with A42S, I45A counted along it
The target in assay [17] is human CLDN3 K156A mutant on RKO KO cells (human) (UniProt O15551). The description is as above.
human CLDN3 K156A mutant on RKO KO cells (human), sequence (O15551 whole entry K156A): as the sequence (O15551 whole entry S42A) above, with A42S, K156A counted along it
Assay [18] deals with human CLDN3 V150A mutant on RKO KO cells (human) (UniProt O15551). Described as above.
human CLDN3 V150A mutant on RKO KO cells (human), sequence (O15551 whole entry V150A): as the sequence (O15551 whole entry S42A) above, with A42S, V150A counted along it
Assay [19] addresses human CLDN3 I39A mutant on RKO KO cells (human) (UniProt O15551). Described as above.
For assay [20], the target named is human CLDN3 N148A mutant on RKO KO cells (human) (UniProt O15551). The assay is described as above.
In assay [21] the target is human CLDN3 F34A mutant on RKO KO cells (human) (UniProt O15551). Described as above.
human CLDN3 F34A mutant on RKO KO cells (human), sequence (O15551 whole entry F34A): as the sequence (O15551 whole entry S42A) above, with F34A, A42S counted along it
The target of assay [22] is human CLDN3 P149A mutant on RKO KO cells (human) (UniProt O15551). The assay is described as above.
human CLDN3 P149A mutant on RKO KO cells (human), sequence (O15551 whole entry P149A): as the sequence (O15551 whole entry S42A) above, with A42S, P149A counted along it

Changes are numbered by the printed parent chain.

human CLDN3 I39A mutant on RKO KO cells (human), sequence (O15551 whole entry I39A): as the sequence (O15551 whole entry S42A) above, with I39A, A42S counted along it

B1: 906-mAb (anti-CLDN3 906-mAb, monoclonal antibody version of the scFv of 906-009_LNGFR) (antibody, V domains shown)
VH: QVQLVQSGAEVKKPGSSVKVSCKASGYTFTNYWVHWVRQAPGQGLEWMGRIEPNSSGSQYNEKFKNRVTITADKSTSTAYMELSSLRSEDTAVYYCARGVMVPLDYWGQGTLVTVSS
VL: DIQMTQSPSSLSASVGDRVTITCKASQDINRYIAWYQQKPGKAPKLLIHYTSTLQPGVPSRFSGSGSGTDFTLTISSLQPEDFATYYCLQYETLYSFGQGTKLEIK
In the case of B1, the “Change in % Parent (906-mAb-PE positive cells) vs CLDN3 WT” value in assay [1] is -99.2%; in assay [2] it was -94.5%; in assay [11], 0.1%; in [12] it was 0.1%; in assay [13], 0.1%; in [14], 0.1%. Further, the Change in % Parent (906-mAb-PE positive cells) vs CLDN3 WT in [15] came out at 0.1%; in assay [16] it was 0.05%; in assay [17], 0.05%; in assay [18], 0%; in [19], 0.1%; in assay [20] it was 0.1%. For the same molecule, the Change in % Parent (906-mAb-PE positive cells) vs CLDN3 WT in [21] was -0.95%; in assay [22] it was 0.1%. In addition, the fold change MFI vs CLDN3 WT (fold vs CLDN3 WT) is 3.91 in assay [3]; 2.68 in [4]; 5.07 in [5]; 3.4 in [6]; 2.98 in assay [7]; 2.75 in assay [8]. Moreover, the fold change MFI vs CLDN3 WT (fold vs CLDN3 WT) amounted to 0.4 in assay [9] and 2.03 in assay [10].

(Values after patent US20230192842A1 (published 2023).)
